Measurements from publication PMC5002983, “Hepatocyte Growth Factor Modulates MET Receptor Tyrosine Kinase and β-Catenin Functional Interactions to Enhance Synapse Formation” (eNeuro, 2016).

B1: β-catenin (natural protein, UniProt Q02248 1-781, looked up)
chain: MATQADLMELDMAMEPDRKAAVSHWQQQSYLDSGIHSGATTTAPSLSGKGNPEEEDVDTSQVLYEWEQGFSQSFTQEQVADIDGQYAMTRAQRVRAAMFPETLDEGMQIPSTQFDAAHPTNVQRLAEPSQMLKHAVVNLINYQDDAELATRAIPELTKLLNDEDQVVVNKAAVMVHQLSKKEASRHAIMRSPQMVSAIVRTMQNTNDVETARCTAGTLHNLSHHREGLLAIFKSGGIPALVKMLGSPVDSVLFYAITTLHNLLLHQEGAKMAVRLAGGLQKMVALLNKTNVKFLAITTDCLQILAYGNQESKLIILASGGPQALVNIMRTYTYEKLLWTTSRVLKVLSVCSSNKPAIVEAGGMQALGLHLTDPSQRLVQNCLWTLRNLSDAATKQEGMEGLLGTLVQLLGSDDINVVTCAAGILSNLTCNNYKNKMMVCQVGGIEALVRTVLRAGDREDITEPAICALRHLTSRHQEAEMAQNAVRLHYGLPVVVKLLHPPSHWPLIKATVGLIRNLALCPANHAPLREQGAIPRLVQLLVRAHQDTQRRTSMGGTQQQFVEGVRMEEIVEGCTGALHILARDVHNRIVIRGLNTIPLFVQLLYSPIENIQRVAAGVLCELAQDKEAAEAIEAEGATAPLTELLHSRNEGVATYAAAVLFRMSEDKPQDYKKRLSVELTSSLFRTEPMAWNETADLGLDIGAQGEALGYRQDDPSYRSFHSGGYGQDALGMDPMMEHEMGGHHPGADYPVDGLPDLGHAQDLMDGLPPGDSNQLAWFDTDL
notes: β-catenin, mouse, endogenous; Endogenous protein, precipitated with mouse anti-β-catenin (BD Biosciences); With HGF a part of it is phosphorylated at Y142; source: endogenous, lysate of crude synaptosomes from P14 mouse neocortex; endogenous, primary mouse neocortical neurons (14 DIV)
B2: MET receptor tyrosine kinase (receptor, UniProt P16056 25-1379, looked up)
chain: ECKEALVKSEMNVNMKYQLPNFTAETPIQNVVLHGHHIYLGATNYIYVLNDKDLQKVSEFKTGPVLEHPDCLPCRDCSSKANSSGGVWKDNINMALLVDTYYDDQLISCGSVNRGTCQRHVLPPDNSADIQSEVHCMFSPEEESGQCPDCVVSALGAKVLLSEKDRFINFFVGNTINSSYPPGYSLHSISVRRLKETQDGFKFLTDQSYIDVLPEFLDSYPIKYIHAFESNHFIYFLTVQKETLDAQTFHTRIIRFCSVDSGLHSYMEMPLECILTEKRRKRSTREEVFNILQAAYVSKPGANLAKQIGASPSDDILFGVFAQSKPDSAEPVNRSAVCAFPIKYVNDFFNKIVNKNNVRCLQHFYGPNHEHCFNRTLLRNSSGCEARSDEYRTEFTTALQRVDLFMGRLNQVLLTSISTFIKGDLTIANLGTSEGRFMQVVLSRTAHLTPHVNFLLDSHPVSPEVIVEHPSNQNGYTLVVTGKKITKIPLNGLGCGHFQSCSQCLSAPYFIQCGWCHNQCVRFDECPSGTWTQEICLPAVYKVFPTSAPLEGGTVLTICGWDFGFRKNNKFDLRKTKVLLGNESCTLTLSESTTNTLKCTVGPAMSEHFNVSVIISNSRETTQYSAFSYVDPVITSISPRYGPQAGGTLLTLTGKYLNSGNSRHISIGGKTCTLKSVSDSILECYTPAQTTSDEFPVKLKIDLANRETSSFSYREDPVVYEIHPTKSFISGGSTITGIGKTLNSVSLPKLVIDVHEVGVNYTVACQHRSNSEIICCTTPSLKQLGLQLPLKTKAFFLLDGILSKHFDLTYVHNPVFEPFEKPVMISMGNENVVEIKGNNIDPEAVKGEVLKVGNQSCESLHWHSGAVLCTVPSDLLKLNSELNIEWKQAVSSTVLGKVIVQPDQNFAGLIIGAVSISVVVLLLSGLFLWMRKRKHKDLGSELVRYDARVHTPHLDRLVSARSVSPTTEMVSNESVDYRATFPEDQFPNSSQNGACRQVQYPLTDLSPILTSGDSDISSPLLQNTVHIDLSALNPELVQAVQHVVIGPSSLIVHFNEVIGRGHFGCVYHGTLLDNDGKKIHCAVKSLNRITDIEEVSQFLTEGIIMKDFSHPNVLSLLGICLRSEGSPLVVLPYMKHGDLRNFIRNETHNPTVKDLIGFGLQVAKGMKYLASKKFVHRDLAARNCMLDEKFTVKVADFGLARDMYDKEYYSVHNKTGAKLPVKWMALESLQTQKFTTKSDVWSFGVLLWELMTRGAPPYPDVNTFDITIYLLQGRRLLQPEYCPDALYEVMLKCWHPKAEMRPSFSELVSRISSIFSTFIGEHYVHVNATYVNVKCVAPYPSLLPSQDNIDGEGNT
notes: MET receptor tyrosine kinase (hepatocyte growth factor receptor), mouse, endogenous; Endogenous protein, precipitated with goat anti-MET (R&D Systems); With HGF the receptor is phosphorylated (pMET blot); source: endogenous, lysate of crude synaptosomes from P14 mouse neocortex; endogenous, primary mouse neocortical neurons (14 DIV)
B3: N-cadherin (natural protein, UniProt P15116 160-906, looked up)
chain: DWVIPPINLPENSRGPFPQELVRIRSDRDKNLSLRYSVTGPGADQPPTGIFIINPISGQLSVTKPLDRELIARFHLRAHAVDINGNQVENPIDIVINVIDMNDNRPEFLHQVWNGSVPEGSKPGTYVMTVTAIDADDPNALNGMLRYRILSQAPSTPSPNMFTINNETGDIITVAAGLDREKVQQYTLIIQATDMEGNPTYGLSNTATAVITVTDVNDNPPEFTAMTFYGEVPENRVDVIVANLTVTDKDQPHTPAWNAAYRISGGDPTGRFAILTDPNSNDGLVTVVKPIDFETNRMFVLTVAAENQVPLAKGIQHPPQSTATVSVTVIDVNENPYFAPNPKIIRQEEGLHAGTMLTTLTAQDPDRYMQQNIRYTKLSDPANWLKIDPVNGQITTIAVLDRESPNVKNNIYNATFLASDNGIPPMSGTGTLQIYLLDINDNAPQVLPQEAETCETPEPNSINITALDYDIDPNAGPFAFDLPLSPVTIKRNWTINRLNGDFAQLNLKIKFLEAGIYEVPIIITDSGNPPKSNISILRVKVCQCDSNGDCTDVDRIVGAGLGTGAIIAILLCIIILLILVLMFVVWMKRRDKERQAKQLLIDPEDDVRDNILKYDEEGGGEEDQDYDLSQLQQPDTVEPDAIKPVGIRRLDERPIHAEPQYPVRSAAPHPGDIGDFINEGLKAADNDPTAPPYDSLLVFDYEGSGSTAGSLSSLNSSSSGGDQDYDYLNDWGPRFKKLADMYGGGDD
notes: N-cadherin (cadherin-2), mouse, endogenous; Endogenous protein, precipitated with rabbit anti-N-cadherin (Santa Cruz Biotechnology); source: endogenous, lysate of crude synaptosomes from P14 mouse neocortex

Assays:
Conditions in all cases: partners not purified
[1] = molecular target: B3; assay: co-IP; crude synaptosomes from P14 mouse neocortex, PBS or 25 ng/ml HGF for 5 min at 37 °C, lysed in HEPES pH 7.4 buffer with 1% Triton X-100; IP with goat anti-MET, mouse anti-β-catenin or rabbit anti-N-cadherin (control IgG in parallel), protein G plus agarose, washes in lysis buffer plus 150 mM NaCl; Western blot; band ratios as fold change HGF/PBS, 3 experiments
[2] = molecular target: B2; assay: as above
[3] = molecular target: B2; assay: proximity ligation; Duolink in situ PLA on fixed primary mouse neocortical neurons at 14 DIV, endogenous proteins, two antibodies (signal means 40 nm or less); PBS or 25 ng/ml HGF for 5, 10 or 30 min; PLA clusters per area of dendrite
[4] = molecular target: B1; assay: co-IP; crude synaptosomes from P14 mouse neocortex, PBS or 25 ng/ml HGF for 5 min at 37 °C, lysed in HEPES pH 7.4 buffer with 1% Triton X-100; IP with goat anti-MET, mouse anti-β-catenin or rabbit anti-N-cadherin (control IgG in parallel), protein G plus agarose, washes in lysis buffer plus 150 mM NaCl; Western blot; band ratios as fold change HGF/PBS, 3 experiments

| mean fold change (HGF/PBS) of co-immunoprecipitated protein [1] [fold] | mean fold change (HGF/PBS) of co-immunoprecipitated protein [2] [fold] | fold increase in density of PLA signal (HGF against PBS) [3] [fold] | mean fold change (HGF/PBS) of co-immunoprecipitated protein [4] [fold] | Binder |
| --- | --- | --- | --- | --- |
| 1.39 | 0.399 |  |  | B1 |
|  | 1.8 | ~1.5 |  | synapsin 1 (natural protein, synapsin 1, mouse, endogenous; also called Syn 1; source: endogenous, lysate of crude synaptosomes from P14 mouse neocortex; endogenous, primary mouse neocortical neurons (14 DIV)) not shown |
|  |  |  | 0.376 | B2 |
|  |  |  | 1.31 | B3 |
